The text below walks through data of publication PMC11303327, “MnoSR removal in Mycobacterium smegmatis triggers broad transcriptional response to 1,3-propanediol and glucose as sole carbon sources”.

Series [1] has as its target T1, MnoR (Mycobacterium smegmatis, UniProt A0R5L8 1-216).
T1 sequence: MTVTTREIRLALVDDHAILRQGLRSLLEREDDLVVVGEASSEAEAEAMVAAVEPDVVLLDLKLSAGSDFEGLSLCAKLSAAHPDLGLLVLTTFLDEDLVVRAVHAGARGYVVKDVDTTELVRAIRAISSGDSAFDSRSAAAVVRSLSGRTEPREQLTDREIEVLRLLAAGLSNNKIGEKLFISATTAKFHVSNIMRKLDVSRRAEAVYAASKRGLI
Nature of the series: EMSA; 100x polyA instead of salmon sperm DNA; EMSA: 50 mM Tris-HCl (pH not stated), 100 mM NaCl, 10 mM MgCl2, 100 ug/ml BSA, 5% glycerol, 5 nM DNA, 30 min 25 °C, 5% native gel at 4 °C; MST: PBS-T, room temperature, DNA 60 nM (perfect), 15 nM (2MM), 120 nM (4MM). As to conditions: protein: recombinant, tags: N-terminal 6xHis, chain copies: 2, label: 5'-Cy5 on strand 1. On the technique in general: In EMSA bound probe runs differently from free probe, usually more slowly.

For series [2], the target named is T1, MnoR. Description: MST; PBS-T; EMSA: 50 mM Tris-HCl (pH not stated), 100 mM NaCl, 10 mM MgCl2, 100 ug/ml BSA, 5% glycerol, 5 nM DNA, 30 min 25 °C, 5% native gel at 4 °C; MST: PBS-T, room temperature, DNA 60 nM (perfect), 15 nM (2MM), 120 nM (4MM). The settings on record: protein: recombinant; tags: N-terminal 6xHis; chain copies: 2; label: 5'-Cy5 on strand 1; blunt.

B1: mno 2MM (dsDNA)
DNA 1: ACCTGGCGGATCTGAGCCCGGCAGGCGATCCGCACACCGGTACCGTGCTGGTGGGCGCGAGCCCCGAGTTGCTGGTCGCCCGCGACG
DNA 2: CGTCGCGGGCGACCAGCAACTCGGGGCTCGCGCCCACCAAGCACGGTACCGGTGTGCGGATCGCCTGCCGGGCTCAGATCCGCCAGGT
For the molecule B1, the binding result in the series with MnoR [1] is given as “binds”.

B2: mno 4MM (dsDNA)
DNA 1: CACGCTGATCACGTCCGACGTCGACGAGCGCGACCAGCCGTTCATCACCGGTGAGCGCACCAAGGAAGGCTTCTTCCGCGTGAAGAA
DNA 2: TTCTTCACGCGGAAGAAGCCTTCCTTGGTGCGCTCACCGGTGATGAACGGCTGGTCGCGCTCGTCGACGTCGGACGTGATCAGCGTG
For the molecule B2, in the series with MnoR [1] (blunt), the binding result is given as “binds”.

B3: mno 3MM (dsDNA)
DNA 1: GCTGGAGGAGGCGTTCACCGCTGACTGGCTCGCCCAGCACTCCTAAGCCGGTGGGCGCCGTCACCCGCGGCACCACCGGTTACAACC
DNA 2: GGTTGTAACCGGTGGTGCCGCGGGTGACGGCGCCCACCGGCTTAGGAGTGCTGGGCGAGCCAGTCAGCGGTGAACGCCTCCTCCAGC
In the case of B3, the binding result in the series with MnoR [1] (blunt) is recorded as “binds”.

B4: mno perfect motif (dsDNA)
DNA 1: GCCTGAGCGATCTGGGGCTCTGAGCACCCTCGCCCACCGGTGAGCCGCCGGTGGGCGGCCACCCTGCCCGACCGGACAGTTCTGCCG
DNA 2: CGGCAGAACTGTCCGGTCGGGCAGGGTGGCCGCCCACCGGCGGCTCACCGGTGGGCGAGGGTGCTCAGAGCCCCAGATCGCTCAGGC
The term Kd denotes the concentration at which binding is half-saturated. As to B4, the equilibrium dissociation constant (Kd) with MnoR [2] is 2370 nM.
